Biological target: HA-p68 (wild type) (UniProt P17844)
UniProt P17844, sequence (P17844 whole entry): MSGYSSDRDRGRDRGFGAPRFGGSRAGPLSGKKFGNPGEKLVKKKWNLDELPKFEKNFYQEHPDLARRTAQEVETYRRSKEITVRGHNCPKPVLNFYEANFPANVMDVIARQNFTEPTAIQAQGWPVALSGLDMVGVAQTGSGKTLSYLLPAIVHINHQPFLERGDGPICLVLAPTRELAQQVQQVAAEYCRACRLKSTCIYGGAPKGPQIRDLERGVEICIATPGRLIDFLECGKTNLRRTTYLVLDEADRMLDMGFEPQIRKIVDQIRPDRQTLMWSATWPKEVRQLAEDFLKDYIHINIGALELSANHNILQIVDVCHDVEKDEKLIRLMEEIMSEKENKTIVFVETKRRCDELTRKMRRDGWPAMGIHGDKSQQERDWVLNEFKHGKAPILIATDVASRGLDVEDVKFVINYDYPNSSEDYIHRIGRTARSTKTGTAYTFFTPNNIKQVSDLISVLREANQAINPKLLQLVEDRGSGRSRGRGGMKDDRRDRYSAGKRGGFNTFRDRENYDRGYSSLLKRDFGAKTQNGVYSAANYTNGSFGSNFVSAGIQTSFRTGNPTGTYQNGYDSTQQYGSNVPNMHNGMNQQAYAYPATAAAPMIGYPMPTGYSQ

## Rhodamine labeled microtubule (from UniProt P02550;P02554) (complex)
  microtubule gliding assay, p68/Ca^2+-CaM (ATP): % of gliding microtubules (n=50): 74.2%
  microtubule gliding assay, p68/Ca^2+-CaM (ATP): maximum gliding speed: 0.52 µm/min
  microtubule gliding assay, p68/Ca^2+-CaM (ATP): mean gliding speed: 0.16 µm/min

— PMC3552336
